Test results: publication PMC3515676

What was measured:
Test in all cases: purified protein
Format in all cases: biochemical, Homo sapiens
Details in all cases: 14 μM PAP[35S], 50 mM Mops pH 7.0, 37 °C
purified protein [1] = substrate: C[C@H](CCC(=O)O)[C@H]1CC[C@H]2[C@@H]3[C@H](O)C[C@@H]4C[C@H](O)CC[C@]4(C)[C@H]3CC[C@]12C
purified protein [2] = substrate: C[C@H](CCC(=O)NCC(=O)O)[C@H]1CC[C@H]2[C@@H]3[C@H](O)C[C@@H]4C[C@H](O)CC[C@]4(C)[C@H]3CC[C@]12C
purified protein [3] = substrate: C[C@H](CCCO)[C@H]1CC[C@H]2[C@@H]3[C@H](O)C[C@H]4C[C@H](O)CC[C@]4(C)[C@H]3C[C@H](O)[C@]12C
purified protein [4] = substrate: C[C@H](CCC(=O)O)[C@H]1CC[C@H]2[C@@H]3CC[C@@H]4C[C@H](O)CC[C@]4(C)[C@H]3CC[C@]12C

B1: human SULT2A1 (hSULT2A1) (Homo sapiens) (protein)
chain: MSDDFLWFEGIAFPTMGFRSETLRKVRDEFVIRDEDVIILTYPKSGTNWLAEILCLMHSKGDAKWIQSVPIWERSPWVESEIGYTALSETESPRLFSSHLPIQLFPKSFFSSKAKVIYLMRNPRDVLVSGYFFWKNMKFIKKPKSWEEYFEWFCQGTVLYGSWFDHIHGWMPMREEKNFLLLSYEELKQDTGRTIEKICQFLGKTLEPEELNLILKNSSFQSMKENKMSNYSLLSVDYVVDKAQLLRKGVSGDWKNHFTVAQAEDFDKLFQEKMADLPRELFPWE
Purified protein [1]
  Km: 42.30 ± 2.97 µM
  Vmax: 0.00395 µmol/min/mg
Purified protein [2]
  Km: 36.73 ± 2.47 µM
  Vmax: 0.0038 µmol/min/mg
Purified protein [3]
  Km: 49.38 ± 4.62 µM
  Vmax: 0.00549 µmol/min/mg
Purified protein [4]
  Km: 8.36 ± 0.39 µM
  Vmax: 0.036 µmol/min/mg
